In PMC7145548:

Experiments:
hsRosR [1] = biological target: T1, hsRosR (Halobacterium salinarum (Halobacterium …, UniProt Q9HSF4 1-116)); test: fluorescence anisotropy
T1 sequence: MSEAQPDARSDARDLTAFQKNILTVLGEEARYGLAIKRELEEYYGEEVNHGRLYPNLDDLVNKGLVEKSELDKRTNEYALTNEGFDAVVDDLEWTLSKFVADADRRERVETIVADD

hsRosR [2] = biological target: T1, hsRosR; test: fluorescence anisotropy; remark: listed apart in the source
hsRosR [3] = biological target: T1, hsRosR; test: fluorescence anisotropy; remark: listed apart in the source
hsRosR [4] = biological target: T1, hsRosR; test: fluorescence anisotropy; remark: listed apart in the source
hsRosR [5] = biological target: T1, hsRosR; test: ITC
hsRosR [6] = biological target: T1, hsRosR; test: fluorescence anisotropy; remark: listed apart in the source
hsRosR [7] = biological target: T1, hsRosR; test: ITC; remark: listed apart in the source
hsRosR [8] = biological target: T1, hsRosR; test: fluorescence anisotropy; remark: listed apart in the source
hsRosR [9] = biological target: T1, hsRosR; test: fluorescence anisotropy; remark: listed apart in the source
hsRosR [10] = biological target: T1, hsRosR; test: X-ray crystallography
hsRosR [11] = biological target: T1, hsRosR; test: X-ray crystallography; remark: listed apart in the source
hsRosR [12] = biological target: T1, hsRosR; test: X-ray crystallography; remark: listed apart in the source

B1: GS5 (dsDNA)
DNA 1: AGCGAGGACACTGCTGGCGGTGTCGCCGTC
DNA 2: GACGGCGACACCGCCAGCAGTGTCCTCGCT
**Q.** Does B1 bind (hsRosR [1])?
**A.** no binding

B2: S1 (25 bp) (dsDNA)
DNA 1: GTGTAAATTGTCTGACATGTTCTTA
DNA 2: TAAGAACATGTCAGACAATTTACAC
**Q.** What does the source list for B2?
**A.** Kd (hsRosR [1]): 37.2 ± 2.36 nM; Kd (hsRosR [2]): 78.3 ± 8.34 nM; Kd (hsRosR [3]): 80.2 ± 10.2 nM; Kd (hsRosR [4]): 24 ± 3.37 nM; Kd (hsRosR [5]): 259 ± 9.75 nM; Kd (hsRosR [6]): 169 ± 30.2 nM; Kd (hsRosR [7]): 91 ± 3.25 nM; Kd (hsRosR [8]): 25.9 ± 2.02 nM

B3: S1 (28 bp) (dsDNA)
DNA 1: GCGAGGTGTAAATTGTCTGACATGTTCT
DNA 2: AGAACATGTCAGACAATTTACACCTCGC
**Q.** B3 was tested. Which Kd (hsRosR [1]) did it give?
**A.** 53.5 ± 6.54 nM

B4: S1 (35 bp) (dsDNA)
DNA 1: GCGAGGTGTAAATTGTCTGACATGTTCTTATTGGG
DNA 2: CCCAATAAGAACATGTCAGACAATTTACACCTCGC
**Q.** For B4, which Kd (hsRosR [1]) is on record?
**A.** 49.3 ± 6.18 nM

B5: S3 (dsDNA)
DNA 1: GCACATGTAAGTCTATTGACATGTTCTTTCCCTCG
DNA 2: CGAGGGAAAGAACATGTCAATAGACTTACATGTGC
**Q.** With B5 as the binder, how does the Kd (hsRosR [9]) read?
**A.** 68 ± 11.3 nM

B6: S2 (dsDNA)
DNA 1: GCGCTCATGTCAACCTTCTTACACTTCCTCTCCCG
DNA 2: CGGGAGAGGAAGTGTAAGAAGGTTGACATGAGCGC
**Q.** How did the Kd (hsRosR [9]) turn out when B6 was run?
**A.** 60.1 ± 18.8 nM

B7: GS2 (first) (dsDNA)
DNA 1: ATCGGGACAATCGCGTCTCTGTCGATCG
DNA 2: CGATCGACAGAGACGCGATTGTCCCGAT
**Q.** Does B7 bind (hsRosR [1])?
**A.** no binding

B8: GS1 (dsDNA)
DNA 1: TAATAGACAGGGAGATCGATGTCTGCTA
DNA 2: TAGCAGACATCGATCTCCCTGTCTATTA
**Q.** Does B8 bind (hsRosR [1])?
**A.** no binding

B9: GS2 (second) (dsDNA)
DNA 1: TTGAATTTGTGGGGGCAGGGACAGCCCTGA
DNA 2: TCAGGGCTGTCCCTGCCCCCACAAATTCAA
**Q.** Does B9 bind (hsRosR [1])?
**A.** no binding

B10: S5 (35 bp) (dsDNA)
DNA 1: GCGAAGTGTCATCCCTCTTACATGACTTGTCTTGG
DNA 2: CCAAGACAAGTCATGTAAGAGGGATGACACTTCGC
**Q.** How did the Kd (hsRosR [9]) turn out when B10 was run?
**A.** 99.5 ± 10.6 nM

B11: S4 (28 bp) (dsDNA)
DNA 1: CCGAAGTGTAAACGCGTTGACATGTGGT
DNA 2: ACCACATGTCAACGCGTTTACACTTCGG
**Q.** Does B11 bind (hsRosR [10])?
**A.** binds

B12: S5 (28 bp) (dsDNA)
DNA 1: GCGAAGTGTCATCCCTCTTACATGACTT
DNA 2: AAGTCATGTAAGAGGGATGACACTTCGC
**Q.** Does B12 bind (hsRosR [11])?
**A.** binds

B13: SG (28 bp) (dsDNA)
DNA 1: GCGACGTGTATTTCCCCTGACACTAGCG
DNA 2: CGCTAGTGTCAGGGGAAATACACGTCGC
**Q.** Does B13 bind (hsRosR [12])?
**A.** binds

B14: S4 (35 bp) (dsDNA)
DNA 1: GCCCGAAGTGTAAACGCGTTGACATGTGGTGCTGG
DNA 2: CCAGCACCACATGTCAACGCGTTTACACTTCGGGC
**Q.** Which Kd (hsRosR [9]) does the source give for B14 here?
**A.** 91.6 ± 13.2 nM
